Assay results from PMC6035287.

Molecular target: bovine brain tubulin (free tubulin) (bovine) (UniProt Q6B856)
Test: ITC; TOG domain proteins in the syringe (150 μM CLASP2 TOG1, TOG2, TOG3; 200 μM CLIP-ID; 250 μM Stu2 TOG1), 15 μM bovine brain tubulin in the cell; BRB80 with 50 mM NaCl, 25°C; one set of sites model

B1: Stu2 TOG1 (domain or fragment)
chain: MSGEEEVDYTTLPLEERLTYKLWKARLEAYKELNQLFRNSVGDISRDDNIQIYWRDPTLFAQYITDSNVVAQEQAIVALNSLIDAFASSSLKNAHNITLISTWTPLLVEKGLTSSRATTKTQSMSCILSLCGLDTSITQSVELVIPFFEKKLPKLIAAAANCVYELMAAFGLTNVNVQTFLPELLKHVPQLAGHGDRNVRSQTMNLIVEIYKVTGNNSDLLEEILFKKLKPIQVKDLHKLFAKVGDEPSSSKMLFEWEKRELEKKRSQEEEA
Q: How did the Kd turn out when B1 was run?
A: The Kd was 18.8 nM.
